From PMC9962925, “PKD autoinhibition in trans regulates activation loop autophosphorylation in cis” (Proceedings of the National Academy of Sciences of the …, 2023) come the findings set out here.

Series [1] addresses PKD1 ubiquitin-like dimerization domain (PKD1^ULD) (human). Description: SEC; analytical size exclusion chromatography of purified proteins (Fig. 1C); elution volumes calibrated to monomer and dimer masses by SEC-MALS. Background: Size exclusion chromatography separates by hydrodynamic size, large species first.
The target of series [2] is PKD1 kinase domain construct, unphosphorylated (PKD1^KD 0P), wild type (human) (UniProt Q15139). The series is described as above.
The target is the same in series [3]. Description: SEC-MALS; 60 uL of purified protein at 2 mg/mL on an S200 10/300 column, room temperature, 20 mM HEPES pH 7.4, 150 mM KCl, 1 mM EDTA, 1 mM TCEP, 1% glycerol (Fig. 1H).
Series [4] concerns the target ULD-PKD1^KD chimera with (Gly)5 linker (human).
The target of series [5] is ULD-PKD1^KD chimera with (Gly)10 linker (human).
Series [6] concerns the molecule itself. Description: SEC; analytical size exclusion chromatography of purified proteins (Fig. 1C); elution volumes calibrated to monomer and dimer masses by SEC-MALS.

As a reminder, the stoichiometry N is the number of molecules, sites or subunits per partner or assembly.

“PKD1 ubiquitin-like dimerization domain (PKD1^ULD) (domain or fragment)” had a stoichiometry N in series [1] of 2.

Turning to “PKD1 kinase domain construct, unphosphorylated (PKD1^KD 0P), wild type (from UniProt Q15139 570-890) (domain or fragment)”, the stoichiometry N in series [2] and in series [3] was 2 throughout.

The molecule ULD-PKD1^KD chimera with (Gly)5 linker returned an initial catalytic rate of Syntide-2 phosphorylation at 50 nM, against PKD1^KD alone in series [4] of 5 fold.

Take ULD-PKD1^KD chimera with (Gly)10 linker: the initial catalytic rate of Syntide-2 phosphorylation at 50 nM, against PKD1^KD alone in series [5] stood at 5 fold.

B1: PKD1^KD S738E (domain or fragment, human, UniProt Q15139 570-890, looked up)
chain: QIQENVDISTVYQIFPDEVLGSGQFGIVYGGKHRKTGRDVAIKIIDKLRFPTKQESQLRNEVAILQNLHHPGVVNLECMFETPERVFVVMEKLHGDMLEMILSSEKGRLPEHITKFLITQILVALRHLHFKNIVHCDLKPENVLLASADPFPQVKLCDFGFARIIGEKEFRRSVVGTPAYLAPEVLRNKGYNRSLDMWSVGVIIYVSLSGTFPFNEDEDIHDQIQNAAFMYPPNPWKEISHEAIDLINNLLQVKMRKRYSVDKTLSHPWLQDYQTWLDLRELECKIGERYITHESDDLRWEKYAGEQGLQYPTHLINPSAS
notes: Protein kinase D1 (PKD1), human, kinase domain construct, residues 570 to 890; also called single glutamate substitution of S738; source: recombinant, purified to homogeneity
As for B1, in series [6], the binding result is “binds”.

B2: PKD1^KD S742E (domain or fragment, human, UniProt Q15139 570-890, looked up)
chain: QIQENVDISTVYQIFPDEVLGSGQFGIVYGGKHRKTGRDVAIKIIDKLRFPTKQESQLRNEVAILQNLHHPGVVNLECMFETPERVFVVMEKLHGDMLEMILSSEKGRLPEHITKFLITQILVALRHLHFKNIVHCDLKPENVLLASADPFPQVKLCDFGFARIIGEKSFRREVVGTPAYLAPEVLRNKGYNRSLDMWSVGVIIYVSLSGTFPFNEDEDIHDQIQNAAFMYPPNPWKEISHEAIDLINNLLQVKMRKRYSVDKTLSHPWLQDYQTWLDLRELECKIGERYITHESDDLRWEKYAGEQGLQYPTHLINPSAS
notes: Protein kinase D1 (PKD1), human, kinase domain construct, residues 570 to 890; also called single glutamate substitution of S742; source: recombinant, purified to homogeneity
Consider B2, for which the binding result in series [6] was “binds”.

B3: PKD1^KD 2A (S738A/S742A) (domain or fragment, human, UniProt Q15139 570-890, looked up)
chain: QIQENVDISTVYQIFPDEVLGSGQFGIVYGGKHRKTGRDVAIKIIDKLRFPTKQESQLRNEVAILQNLHHPGVVNLECMFETPERVFVVMEKLHGDMLEMILSSEKGRLPEHITKFLITQILVALRHLHFKNIVHCDLKPENVLLASADPFPQVKLCDFGFARIIGEKAFRRAVVGTPAYLAPEVLRNKGYNRSLDMWSVGVIIYVSLSGTFPFNEDEDIHDQIQNAAFMYPPNPWKEISHEAIDLINNLLQVKMRKRYSVDKTLSHPWLQDYQTWLDLRELECKIGERYITHESDDLRWEKYAGEQGLQYPTHLINPSAS
notes: the sites are S738 and S742; source: recombinant, purified to homogeneity
On to B3, for which the “stoichiometry N” value in series [6] was 2.
